In patent US20210009703A1 (TUSK THERAPEUTICS, published 2021):

Legend:
[1] = molecular target: T1, human CD25 expressed on cells (human, UniProt P01589 22-272); test: flow cytometry on SU-DHL-1 cells, PE anti-human IgG Fc secondary
T1 construct: Endogenous CD25 on human cells; also called CD25 on human in vitro differentiated Treg cells, SU-DHL-1 cells, SR-786 cells and PBMC
T1 sequence: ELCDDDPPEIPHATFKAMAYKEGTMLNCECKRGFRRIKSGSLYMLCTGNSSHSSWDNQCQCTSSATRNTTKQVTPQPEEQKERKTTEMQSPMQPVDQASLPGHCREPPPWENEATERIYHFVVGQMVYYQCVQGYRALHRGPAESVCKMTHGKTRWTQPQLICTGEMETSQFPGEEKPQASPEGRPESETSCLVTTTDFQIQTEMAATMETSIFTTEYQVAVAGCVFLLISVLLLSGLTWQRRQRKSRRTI
Protocol: Cells were washed again and resuspended in FACS buffer containing DAPI and acquired on the Intellicyt iQue. Live cells were gated using FSC vs SSC parameters by flow cytometry during sample acquisition. Geo Mean Intensity of stained cells were plotted on an XY chart, graphing Geo Mean Intensity against the log of the concentration, and the data fit to a non-linear regression curve from which the EC50 is calculated.

[2] = molecular target: T2, recombinant human CD25 his tagged (human, UniProt P01589 22-240); test: ForteBio BLI, avidity format: rhCD25-His on Ni-NTA sensors, IgG in solution; IgG in solution, avidity format
T2 construct: also called rhCD25-his; rhCD25; not shown: His tag
T2 sequence: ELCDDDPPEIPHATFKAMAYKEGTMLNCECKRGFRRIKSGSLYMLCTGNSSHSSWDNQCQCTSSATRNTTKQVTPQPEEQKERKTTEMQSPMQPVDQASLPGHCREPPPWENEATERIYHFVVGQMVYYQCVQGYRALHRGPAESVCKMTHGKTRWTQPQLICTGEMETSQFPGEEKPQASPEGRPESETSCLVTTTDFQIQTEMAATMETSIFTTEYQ

B1: aCD25-a-672 (antibody, V domains shown)
VH: QVQLVQSGAEVKKPGSSVKVSCKASGGTFSSYAISWVRQAPGQGLEWMGGIIPIFGTANYAQKFQGRVTITADESTSTAYMELSSLRSEDTAVYYCAREYDYKEDWGQGTLVTVSS
VL: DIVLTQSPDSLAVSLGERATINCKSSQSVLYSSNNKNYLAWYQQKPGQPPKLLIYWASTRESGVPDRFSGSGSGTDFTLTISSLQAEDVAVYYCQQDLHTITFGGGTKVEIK
notes: An afucosylated IgG1 form was also made
B1 was tested, and the “EC50 (read off the curve)” value [1] was ~0.2 µg/mL and the Kd [2] was 1.2 nM.
